Experimental data as given in PMC8876628 (Toxins, 2022).

B1: TT110 human monoclonal antibody (antibody, V domains shown)
VH: QVQLMQSGAEVQKPGASVKVSCQASGFTLNNYYIHWLRQAPGQGFEWMGIFNPSSGTRTYAQKFQGRISMTADASTTTLYMELSGLTSEDAGVYFCARIGGSTYGRLMTYYFDHWGQGTVVAVSS
VL: EVVLTQSPVTLSVSPGGRGTLSCRASRSISTTLAWYQQKPGQAPRLLIYGASTRATGIPARFTGSGSGTEFTLTISSLQSEDFAVYYCQQYNDWPVTFGQGTQVEVK
notes: also called humAb TT110
B2: TT104 human monoclonal antibody (antibody, V domains shown)
VH: QLQLQESGPGLVRPSETLSLTCSVSDDSMGSSTYYWAWIRQPPGKGLEWIGNVYYNGVTYYNSSLESRLTLSIDPSKNQFSLILSSVTAADTAVYYCARQADNWFDPWGQGTLVTVSS
VL: EIMMTQSPATLSVSPGERATLSCRASQSVGSDLAWYQQKPGQAPRLLIYGASYRATGIPARFSGGGSGTEFTLTISSMQSEDFAVYYCQQYYNWPPYTFGQGTKVEIK
notes: also called humAb TT104

Target: Tetanus neurotoxin (Clostridium tetani, UniProt P04958)
Sequence (P04958 whole entry): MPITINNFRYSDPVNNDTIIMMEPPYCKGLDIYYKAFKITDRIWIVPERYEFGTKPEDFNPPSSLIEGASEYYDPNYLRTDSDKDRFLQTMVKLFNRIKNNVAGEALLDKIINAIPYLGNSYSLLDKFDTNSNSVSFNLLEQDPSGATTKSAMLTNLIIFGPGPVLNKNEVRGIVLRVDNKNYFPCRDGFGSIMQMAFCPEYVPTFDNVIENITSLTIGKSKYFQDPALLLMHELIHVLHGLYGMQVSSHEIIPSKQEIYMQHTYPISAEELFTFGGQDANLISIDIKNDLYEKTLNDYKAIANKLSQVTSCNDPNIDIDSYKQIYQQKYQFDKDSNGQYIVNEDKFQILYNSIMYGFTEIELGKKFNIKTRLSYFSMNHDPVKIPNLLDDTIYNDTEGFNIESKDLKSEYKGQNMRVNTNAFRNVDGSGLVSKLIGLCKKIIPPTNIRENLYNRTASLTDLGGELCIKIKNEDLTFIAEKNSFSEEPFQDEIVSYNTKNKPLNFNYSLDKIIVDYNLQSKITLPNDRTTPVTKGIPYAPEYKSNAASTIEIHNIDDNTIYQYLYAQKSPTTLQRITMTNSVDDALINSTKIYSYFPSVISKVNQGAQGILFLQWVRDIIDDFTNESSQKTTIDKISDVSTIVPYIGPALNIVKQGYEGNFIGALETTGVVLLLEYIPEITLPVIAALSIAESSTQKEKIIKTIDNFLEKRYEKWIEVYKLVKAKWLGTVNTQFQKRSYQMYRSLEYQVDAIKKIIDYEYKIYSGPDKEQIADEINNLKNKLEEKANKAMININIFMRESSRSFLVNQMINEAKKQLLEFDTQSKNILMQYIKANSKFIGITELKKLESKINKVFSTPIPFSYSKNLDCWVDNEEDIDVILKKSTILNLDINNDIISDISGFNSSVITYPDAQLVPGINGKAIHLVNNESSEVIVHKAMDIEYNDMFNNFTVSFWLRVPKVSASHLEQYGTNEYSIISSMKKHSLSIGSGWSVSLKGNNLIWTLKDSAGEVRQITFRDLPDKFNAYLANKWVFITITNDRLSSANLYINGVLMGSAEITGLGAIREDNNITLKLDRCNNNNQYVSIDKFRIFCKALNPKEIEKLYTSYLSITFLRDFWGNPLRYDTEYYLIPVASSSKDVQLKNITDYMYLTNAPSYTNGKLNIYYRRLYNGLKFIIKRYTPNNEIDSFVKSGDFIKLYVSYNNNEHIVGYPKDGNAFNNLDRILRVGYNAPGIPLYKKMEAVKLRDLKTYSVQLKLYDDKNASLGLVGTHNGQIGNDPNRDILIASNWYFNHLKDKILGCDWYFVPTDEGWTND
Assay: cryo-EM structure; epitopes of TT104 and TT110 on TeNT determined via cryo-EM
Settings: both partners purified

Binder	binding result
B1	binds
B2	binds
